{"source": "paper PMC3432176", "origin": "cited, not measured here", "target": "preMADH (Paracoccus denitrificans) (UniProt P22619)", "sequence (P22619 58-188, chain 1 of 2)": "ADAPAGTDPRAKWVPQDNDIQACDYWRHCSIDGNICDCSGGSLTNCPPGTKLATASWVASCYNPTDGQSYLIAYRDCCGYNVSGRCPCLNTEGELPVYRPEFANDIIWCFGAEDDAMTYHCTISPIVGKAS", "sequence (P29894 29-417, chain 2 of 2, further chain)": "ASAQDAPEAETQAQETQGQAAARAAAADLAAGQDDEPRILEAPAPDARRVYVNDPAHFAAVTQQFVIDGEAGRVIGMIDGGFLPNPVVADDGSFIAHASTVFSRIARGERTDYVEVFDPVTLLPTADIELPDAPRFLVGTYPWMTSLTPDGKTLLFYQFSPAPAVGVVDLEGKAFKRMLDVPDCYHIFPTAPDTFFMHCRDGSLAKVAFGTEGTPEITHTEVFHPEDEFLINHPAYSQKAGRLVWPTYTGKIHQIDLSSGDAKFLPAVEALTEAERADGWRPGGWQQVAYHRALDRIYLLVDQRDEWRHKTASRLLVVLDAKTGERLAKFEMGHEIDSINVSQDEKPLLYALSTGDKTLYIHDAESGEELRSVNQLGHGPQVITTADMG", "test": "kinetics"}
{"substance": "MauG (from UniProt Q51658)", "values": [{"measurement": "Kd", "result": "< 1500", "unit": "nM"}]}
